The supplement of paper PMC11136658

Test system: peptide library, one residue held at a place counted from the Y acceptor
Assay: relative phosphorylation of the sub-library (ratio to the mean residue at this position); higher = residue favoured
Summary of the method: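 Within 384-well plates, purified recombinant kinases phosphorylated biotinylated Tyr-centred peptide library mixtures over 90 min using 50 μM ATP spiked with γ-32P-ATP; each mixture fixed one residue at one position from −5 to +5. Streptavidin membrane capture, rinsing, phosphorimaging and ImageQuant gave the intensities. These were normalized per position to the sum of the 18 randomized residues (16 for the Ser/Thr-free library) and multiplied by that number.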

Sequence of FLT4, construct: aa800-end, human (P35916 800-1363, looked up): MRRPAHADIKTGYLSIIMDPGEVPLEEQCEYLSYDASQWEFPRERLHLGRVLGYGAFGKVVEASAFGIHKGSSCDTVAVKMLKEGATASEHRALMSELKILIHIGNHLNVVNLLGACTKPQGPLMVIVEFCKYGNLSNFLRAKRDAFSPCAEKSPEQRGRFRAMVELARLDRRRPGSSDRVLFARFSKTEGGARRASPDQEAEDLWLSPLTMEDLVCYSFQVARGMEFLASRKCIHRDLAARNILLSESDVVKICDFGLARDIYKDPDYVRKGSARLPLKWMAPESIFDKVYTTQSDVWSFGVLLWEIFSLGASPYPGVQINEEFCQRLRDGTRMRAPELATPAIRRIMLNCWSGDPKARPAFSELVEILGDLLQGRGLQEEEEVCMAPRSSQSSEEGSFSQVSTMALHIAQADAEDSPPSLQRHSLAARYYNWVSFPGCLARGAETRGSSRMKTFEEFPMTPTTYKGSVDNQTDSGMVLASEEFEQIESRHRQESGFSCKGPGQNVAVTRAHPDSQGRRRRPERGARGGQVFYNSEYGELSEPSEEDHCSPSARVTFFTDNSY
Sequence of ERBB4, construct: aa682-993, human (Q15303 682-993, looked up): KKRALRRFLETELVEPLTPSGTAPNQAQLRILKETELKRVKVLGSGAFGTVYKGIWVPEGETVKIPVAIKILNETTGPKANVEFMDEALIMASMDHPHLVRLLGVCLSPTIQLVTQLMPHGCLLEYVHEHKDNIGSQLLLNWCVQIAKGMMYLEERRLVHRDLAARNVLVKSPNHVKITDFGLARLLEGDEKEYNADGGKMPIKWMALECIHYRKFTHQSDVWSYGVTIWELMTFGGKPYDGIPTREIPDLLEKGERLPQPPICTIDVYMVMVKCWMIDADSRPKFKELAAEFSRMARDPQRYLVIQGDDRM

ERBB4, construct: aa682-993, human (from UniProt Q15303)
relative phosphorylation
Conditions | at +1 | at +2 | at +3 | at +4 | at +5 | at -1 | at -2 | at -3 | at -4 | at -5
A fixed | 1 | 0.674 | 0.487 | 0.87 | 1.07 | 0.611 | 1.41 | 0.86 | 1.34 | 1.06
D fixed | 0.859 | 1.43 | 0.443 | 0.917 | 0.946 | 2.49 | 1.76 | 1.84 | 1.36 | 1.25
E fixed | 1.87 | 2.03 | 0.446 | 1.07 | 0.98 | 2.43 | 2.11 | 2.33 | 1.62 | 1.1
F fixed | 1.07 | 1.32 | 2.24 | 1.18 | 1.25 | 0.62 | 0.599 | 0.925 | 1.12 | 1.08
G fixed | 0.413 | 0.375 | 0.427 | 1.13 | 1.14 | 0.519 | 1.04 | 0.941 | 1.09 | 0.998
H fixed | 0.893 | 0.725 | 0.757 | 0.987 | 0.865 | 0.81 | 0.877 | 0.81 | 0.757 | 1
I fixed | 1.93 | 1.14 | 2.4 | 0.846 | 0.858 | 1.96 | 0.757 | 0.647 | 0.789 | 0.823
K fixed | 0.252 | 0.401 | 0.211 | 0.647 | 0.903 | 0.297 | 0.514 | 0.691 | 0.733 | 0.913
L fixed | 1.03 | 0.97 | 1.97 | 0.758 | 1.01 | 1.21 | 0.826 | 0.859 | 0.931 | 0.936
M fixed | 1.12 | 0.975 | 1.43 | 0.922 | 0.959 | 0.876 | 0.57 | 0.842 | 0.757 | 0.892
N fixed | 0.453 | 0.909 | 0.439 | 0.635 | 0.757 | 1.24 | 1.08 | 1.37 | 0.863 | 1.16
P fixed | 0.345 | 0.691 | 0.616 | 1.28 | 1.49 | 0.503 | 1.22 | 0.964 | 1.14 | 0.907
Q fixed | 1.09 | 0.79 | 0.475 | 0.838 | 0.757 | 0.955 | 1.12 | 0.962 | 1.45 | 1.23
R fixed | 0.318 | 0.58 | 0.328 | 0.769 | 0.864 | 0.333 | 0.508 | 0.602 | 0.65 | 0.897
S fixed | 0.678 | 0.839 | 0.6 | 1.06 | 1.13 | 0.506 | 1.03 | 0.981 | 0.882 | 0.903
T fixed | 1.1 | 1.05 | 0.563 | 0.87 | 1.02 | 1.01 | 0.872 | 0.924 | 0.537 | 0.79
V fixed | 2.46 | 1.2 | 1.46 | 0.93 | 0.911 | 1.11 | 1.16 | 0.697 | 0.836 | 0.815
W fixed | 1.11 | 1.9 | 2.71 | 2.28 | 1.09 | 0.522 | 0.541 | 0.759 | 1.13 | 1.25
pThr fixed | 2.75 | 2.29 | 0.524 | 1.01 | 1.01 | 3.76 | 2.43 | 2.64 | 1.41 | 1.21
pTyr fixed | 15.4 | 5.38 | 1.12 | 1.4 | 1.13 | 2.48 | 2.59 | 2.35 | 1.62 | 1.31

FLT4, construct: aa800-end, human (from UniProt P35916)
relative phosphorylation
Conditions | at +1 | at +2 | at +3 | at +4 | at +5 | at -1 | at -2 | at -3 | at -4 | at -5
A fixed | 0.654 | 0.524 | 0.48 | 0.749 | 0.758 | 0.638 | 0.879 | 0.799 | 0.976 | 0.878
D fixed | 0.367 | 0.647 | 0.424 | 0.913 | 1.12 | 2.84 | 1.25 | 1.3 | 1.05 | 1.04
E fixed | 0.448 | 0.846 | 0.366 | 0.895 | 0.95 | 1.93 | 1.3 | 1.34 | 1.16 | 0.956
F fixed | 2.19 | 1.57 | 3.08 | 1.07 | 1.31 | 1.09 | 0.748 | 1.04 | 1.14 | 1.12
G fixed | 0.351 | 0.332 | 0.713 | 1.01 | 0.98 | 0.492 | 0.949 | 0.888 | 0.967 | 0.956
H fixed | 1.08 | 1.05 | 0.595 | 1.33 | 1.12 | 1.24 | 1.16 | 1.16 | 1.08 | 1.27
I fixed | 1.69 | 1.02 | 1.82 | 0.723 | 0.927 | 1.05 | 0.825 | 0.743 | 0.798 | 0.898
K fixed | 0.643 | 0.864 | 0.396 | 1.16 | 1.01 | 0.439 | 0.921 | 0.964 | 0.992 | 1.08
L fixed | 1.06 | 1.36 | 2.1 | 0.856 | 1.06 | 0.746 | 0.887 | 0.845 | 0.928 | 0.853
M fixed | 1.02 | 1.07 | 1.98 | 0.98 | 0.991 | 0.655 | 0.962 | 0.853 | 0.837 | 0.953
N fixed | 0.534 | 0.899 | 0.389 | 0.868 | 1.1 | 1.6 | 1.2 | 1.24 | 0.896 | 1.08
P fixed | 0.571 | 0.471 | 0.588 | 1.17 | 1.04 | 0.583 | 0.945 | 0.8 | 0.915 | 0.822
Q fixed | 1.25 | 0.896 | 0.59 | 1.09 | 0.967 | 1.15 | 1.16 | 1.11 | 1.08 | 1.07
R fixed | 0.734 | 1.3 | 0.554 | 1.37 | 1.01 | 0.507 | 1.17 | 1.09 | 1.14 | 1.24
S fixed | 0.599 | 0.684 | 0.506 | 0.92 | 0.829 | 0.657 | 1.08 | 1.09 | 0.843 | 0.921
T fixed | 0.9 | 0.895 | 0.72 | 0.848 | 0.771 | 0.792 | 0.899 | 1.01 | 0.74 | 0.848
V fixed | 2.12 | 0.975 | 1.4 | 0.751 | 0.774 | 0.892 | 0.766 | 0.712 | 0.844 | 0.777
W fixed | 1.78 | 2.6 | 1.3 | 1.3 | 1.28 | 0.706 | 0.895 | 1.03 | 1.61 | 1.23
pThr fixed | 0.737 | 1.37 | 0.521 | 0.8 | 1.08 | 1.47 | 0.969 | 1.13 | 1.03 | 0.981
pTyr fixed | 2.51 | 2.96 | 0.651 | 0.9 | 0.834 | 3.16 | 1.24 | 1.38 | 1.29 | 1.06
